Data as given in patent US20110135636A1 (SYMPHOGEN A S, published 2011).

B1: antibody 1308 (antibody, human IgG1, kappa, V domains shown)
VH: EVQLQQSGAELVRPGSSVKISCKASGYAFSSYWMNWVRQRPGQGLEWIGQIYPGDGDTNYNGKFKGRATLTANKSSSTAYMQLSSLTSEDSAVYFCARRASSLYDVYPYYFDYWGQGTTLTVSS
VL: DIQMTQTTSSLSASLGDRVTISCRASQDISNYLNWYQQKPDGTVKVLIYYTSRLHSGVPSRFSGSGSGTDYSLTISNLEQEDIATYFCQQGNTLPYTFGGGTKLEIKR
notes: Chimeric IgG1 kappa
B2: antibody 1257 (antibody, human IgG1, kappa, V domains shown)
VH: EVQLQQSGPELVKPGASVKIPCKTSGYTFTDYNMAWVKQSHGKSLEWIGDIIPNNGGAIYNQKFKGKATLTVDKSSSTASMELRSLTSEDTAVYFCARKNIYYRYDGAGALDYWGQGTSVTVSS
VL: QIVLTQSPAIMSASPGEKVTMTCSASSSVSYIYWYQQKPGSSPRLLIYDASNLASGVPVRFSGSGSGTSYSLTISRMEAEDAATYYCQQWSSYPITFGSGTKLEIKR
notes: Chimeric IgG1 kappa
B3: antibody 1260 (antibody, human IgG1, kappa, V domains shown)
VH: QVQLKESGPGLVAPSQSLSITCTVSGFSLTTYGVHWVRQPPGKGLEWLGVIWAGGSTNYNSALMSRLSIKKDNSKSQVFLKMNSLQTDDTAMYYCARAYGYNFDYWGQGTTLTVSS
VL: DIQMTQTTSSLSASLGDRVTISCSASQGITNYLNWYQQKPDGTVKLLIYYSSSLHSGVPSRFSGSGSGTDYSLTISNLEPEDIATYYCQQYSEIPYTFGGGTKLELKR
notes: Chimeric IgG1 kappa
B4: antibody 1284 (antibody, human IgG1, kappa, V domains shown)
VH: QVQLQQPGAELVKPGASVKLSCKASGYTFTSDWMHWMKQRPGQGLEWIGEINPSNGRSSYNEKFKSKATLTVDKSSSTAYMQLSSLTSEDSAVYYCARIGGIYVETYWGQGTLVTVSS
VL: DIVLTQSPASLAVSLGQRATISCRASQSVSTSTYSYMHWYQQKSGQPPKLLIKYASNLESGVPARFSGSGSGTDFTLNIHPVEEEDTATYYCQHSWEIPWTFGGGTKLEIKR
notes: Chimeric IgG1 kappa
B5: antibody 1261 (antibody, human IgG1, kappa, V domains shown)
VH: EVQLVESGGGLVKPGGSLKLSCAVSGFTFSSYVMSWVRQTPEKRLEWVATITSGGRNIYYLDSVKGRFTISRDNAKNTLYLQMSSLRSEDTAMYYCARHEDYRYDGYYAMDYWGQGTSVTVSS
VL: QIVLTQSPAIMSASPGEKVTITCSASSSVSYMHWFQQKPGTSPKLWIYSTSNLASGVPARFSGSGSGTSYSLTISRMEAEDAATYYCQQRSSYPYTFGGGTKLELKR
notes: Chimeric IgG1 kappa

Legend:
[1] = molecular target: T1, EGFRvIII (deletion mutant EGFR) (human, UniProt P00533 25-645, limits assumed); assay: EGFRvIII ELISA (Example 1)
T1 construct: also called deltaEGFR; rhEGFRvIII

[2] = molecular target: T2, recombinant human EGFR extracellular domain with 6xHis (human, UniProt P00533 25-645); assay: SPR competition, competitor 1308
T2 construct: In-house produced; also called 6xHis EGFR ECD; soluble human EGFR ECD; not shown: 6xHis tag
Protocol: SPR analysis was performed on a Biacore 3000 machine containing four flow cells. A CM5 Biacore chip was conjugated with 10,000 Resonance units (Ru) polyclonal anti-His antibody to flow cells 1-4 according to the manufacturer's instructions. […] Immediately after antigen injection the maximal binding of the Anti-EGFR mAb without competition was established in each flow cell during a reference run. Briefly 5 μl antibody at a concentration of 40 μg/ml was injected over all flow cells with captured EGFR followed by stripping of the antibody/antigen complex with a low pH acid wash (10 sec. contact time with 10 mM Glycine-HCl, pH2). After the determination of Anti-EGFR antibody maximal binding to each flow cell, a competition run was performed during the same Biacore cycle. Flow cells were first saturated with EGFR ECD antigen followed by injection of different reference antibodies or Anti-EGFR antibodies into separate flow cells using the same antigen saturating conditions as outlined above. This step was immediately followed by a second injection of Anti-EGFR antibody over the flow cell saturated with EGFR antigen and competition antibody to minimize the dissociation of either antigen or blocking antibody. Then the antibody/antigen complexes were stripped off with a low pH acid wash (10 sec. contact time with 10 mM Glycine-HCl, pH 2) and the whole cycle beginning with the reference run was repeated with a new Anti-EGFR antibody. The degree of inhibition of tested Anti-EGFR antibodies were determined by comparing the Ru max value of the individual Anti-EGFR antibody before and after competition by introduction of report points recorded two seconds before and after injection of each sample.

[3] = molecular target: T3, Cynomolgus EGFR extracellular domain (Cynomolgus monkey (Macaca fascicularis), UniProt P55245 25-645 (rhesus entry)); assay: ELISA on cynomolgus EGFR ECD (Example 10)
T3 construct: Cloned without signal peptide; also called Cynomolgus rEGFR ECD; Cynomolgus EGFR ECD
Procedure, shortened: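 Wells coated overnight at 4 °C with 1 μg/ml EGFR protein, then given serial four-fold antibody dilutions from 1 μg/ml for 1 h at room temperature. Binding detected with streptavidin-HRP and TMB, read at OD 450 nm.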

[4] = molecular target: T4, wild type full length EGFR purified from A431 cells (human, UniProt P00533 25-1210); assay: competition ELISA, competitor Ab-1; set-up: concentration or dose not given beside the values
T4 construct: mature; Bought; coated on ELISA wells; also called full length EGFR receptor antigen; Sigma E3641
Protocol: (§1) The ELISA was adapted from the descriptions published in Ditzel et al, 1995, The Journal of Immunology, Vol 154, Issue 2 893-906.
(§2) An epitope blocking ELISA was performed by diluting full length EGFR receptor antigen to 0.5 μg/ml in PBS; and coating 50 μl/ELISA well overnight at 4° C. […] Finally wells were washed four times with PBS-T and plates were developed by adding 50 μl/well TMB and read at 620 nm every 5-15-30 min. The degree of inhibition was calculated from the formula: % inhibition=(1−(OD competition/OD no competition (PBS)))×100.

[5] = molecular target: T4, wild type full length EGFR purified …; assay: competition ELISA, competitor Ab-2; set-up: concentration or dose not given beside the values
Protocol: as §1, §2

[6] = molecular target: T4, wild type full length EGFR purified …; assay: competition ELISA, competitor Ab-3; set-up: concentration or dose not given beside the values
Protocol: as §1, §2

[7] = molecular target: T4, wild type full length EGFR purified …; assay: competition ELISA, competitor Ab-5; set-up: concentration or dose not given beside the values
Protocol: as §1, §2

[8] = molecular target: T4, wild type full length EGFR purified …; assay: competition ELISA, competitor Ab-10; set-up: concentration or dose not given beside the values
Protocol: as §1, §2

[9] = molecular target: T4, wild type full length EGFR purified …; assay: competition ELISA, competitor Ab-11; set-up: concentration or dose not given beside the values
Protocol: as §1, §2

[10] = molecular target: T4, wild type full length EGFR purified …; assay: competition ELISA, competitor ICR10; set-up: concentration or dose not given beside the values
Protocol: as §1, §2

[11] = molecular target: T2, recombinant human EGFR extracellular …; assay: SPR competition, competitor 1449
Procedure, shortened: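 Biacore 3000 SPR with His-tagged EGFR ECD captured on a CM5 chip carrying polyclonal anti-His antibody. A reference run set each anti-EGFR mAb's maximal binding (40 μg/ml). Competitor then saturated the captured antigen before the test mAb was injected again. Inhibition = Ru max before vs after competition.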

[12] = molecular target: T2, recombinant human EGFR extracellular …; assay: SPR (BIAcore 2000); IgG captured on anti-human Fc, soluble monovalent EGFR ECD injected
Protocol: Kinetic analysis of the full length IgG antibodies of the invention was performed on a BIAcore 2000, employing an assay as described in (Canziani, Klakamp, et al. 2004, Anal. Biochem, 325:301-307) allowing measurement of monovalent affinities of whole IgG molecules against soluble antigen. […] The chip surface was regenerated in between cycles by stripping the captured antibody/antigen complexes with a 10 second injection of 100 mM H₃PO₄. […] The association rate constant (ka) and dissociation constant (kd) were evaluated globally from the generated sensograms with the BIA evaluation software 4.1 provided by the manufacturer.

Binder | binding result [1] | % inhibition [2] [%] | binding result [3] | % inhibition [4] [%] | % inhibition [5] [%] | % inhibition [6] [%] | % inhibition [7] [%] | % inhibition [8] [%] | % inhibition [9] [%] | % inhibition [10] [%] | % inhibition [11] [%] | Kd [12] [nM] | koff [12] [s⁻¹] | kon [12] [M⁻¹ s⁻¹] | t1/2 [12] [min]
B1 | no binding | 75 | binds | 4 | 11 | 19 | 0 | 12 | 91 | 71 | – | – | – | – | –
B2 | no binding | 27 | binds | 6 | 37 | 77 | 25 | 33 | 92 | 78 | 15 | – | – | – | –
B3 | no binding | – | binds | 12 | 8 | 12 | 17 | 24 | 92 | 90 | 29 | 4.2 | 0.00016 | 37000 | 74.1
B4 | no binding | 68 | binds | 12 | 26 | 9 | 31 | 30 | 52 | 88 | -1 | 4.6 | 0.00015 | 32000 | 78.1
B5 | no binding | -10 | binds | 3 | 6 | 30 | 6 | 13 | 88 | 57 | -20 | 18.6 | 0.0032 | 170000 | 3.6
